{"source": "patent US20230041030A1", "biological_target": "HLA-A*0201 MART-1 peptide complex on peptide-loaded K562 cells (human)", "assay": "cell-based or functional assay"}
{"substance": "MART-1/Melan-A specific TCR DMF5", "values": [{"measurement": "CD25 Fold Change (TCR-transduced CD8+ Jurkat KO cells co-cultured with peptide-loaded K562 APCs)", "value": 235, "unit": "fold"}, {"measurement": "CD69 Fold Change (TCR-transduced CD8+ Jurkat KO cells co-cultured with peptide-loaded K562 APCs)", "value": 45, "unit": "fold"}, {"measurement": "IL2 Fold Change (TCR-transduced CD8+ Jurkat KO cells co-cultured with peptide-loaded K562 APCs)", "value": 33, "unit": "fold"}]}
